Bridge positions count the residues as written; N and C are the ends. Square brackets hold non-standard residues; d marks the D form. Primed or numbered codes have the meaning given here. Side chains are listed from the residue outwards. Ends that are not written are not given here. * marks the point of attachment. Biotin = O=C1N[C@H]2[C@H](CS[C@H]2CCCCC(=O)*)N1; PEG2(3) = PEG2 spacer carrying biotin on Lys; PEG2″ = not defined here; PEG = not defined here; PEG2(4) = PEG2 spacer; PEG4′ = PEG4 spacer
molecular target: human Factor IXa (human, UniProt P00740 47-191; P00740 227-461); test: cell-based or functional assay

Row | Binder | EC50 [µM], FXa generation assay | EC50 [µM], FXa generation assay with hFIXa
1 | RRAPGKLTCLASYCWLFWTGYASGKPSRVYVI [RRAPGKLTCLASYCWLF WTGYA SGKPSRVYVI] | > 1 µM | 
2 | RRAPGKLTCK([PEG2(3)-Biotin])ASYCWLFWTGIA (cysteine pairing not given here) [RRAPGKLTCK(PEG2-Biotin)ASYCWLFWTGIA] | < 0.5 µM | 
3 | QWQIAGQVLKRRAPAKLTCLASYCWLFWTGIA [QWQIAGQVLKRRAPA KLTCLASYCWLFWTGIA] | < 0.5 µM | 
4 | RRAPGK([PEG2(3)-Biotin])LTCLASYCWLFWTGIA (not fully specified (bridges); printed as RRAPGK(PEG2-Biotin)LTCLASYCWLFWTGIA; cysteine pairing not given here) [RRAPGK(PEG2-Biotin)LTCLASYCWLFWTGIA] | < 0.5 µM | 
5 | RRAPGKLTCLASYCWK([PEG2(3)-Biotin])FWTGIA (not fully specified (C-terminus); printed as RRAPGKLTCLASYCWK(PEG2-Biotin)FWTGIA; cysteine pairing not given here) [RRAPGKLTCLASYCWK(PEG2-Biotin)FWTGIA] | > 1 µM | 
6 | LQLSYGEQRQSRAPGKLTCLASYCWLFWTGIA [LQLSYGEQRQ SRAPG KLTCLASYCWLFWTGIA] | < 0.5 µM | 
7 | RRAPGKLTCLASK([PEG2″-Biotin])CWLFWTGIA (not fully specified; printed as RRAPGKLTCLASK(PEG2-Biotin)CWLFWTGIA; cysteine pairing not given here) [RRAPGKLTCLASK(PEG2-Biotin)CWLFWTGIA] | < 0.5 µM | 
8 | [PEG4′]RRAPGKLTCLASYCWLFWTGIA (disulfide 10-15 (inferred); not fully specified (C-terminus); printed as PEG4-RRAPGKLTCLASYCWLFWTGIA) [PEG4-RRAPGKLTCLASYCWLFWTGIA] | < 0.5 µM | 
9 | CGGSGGRRAPGKLQCLASYCWLFWTGIAGGSGGC | > 1 µM | 
10 | RRAPGKLTCLASYCWLFWTGI[dA] (not fully specified (C-terminus, bridges); printed as RRAPGKLTCLASYCWLFWTGIa; cysteine pairing not given here) [RRAPGKLTCLASYCWLFWTGIa] | > 1 µM | 
11 | CRRAPGKLQCLASYCWLFWTGIAGGSGGC | > 1 µM | 
12 | RRAK([PEG2(4)-Biotin])GKLTCLASYCWLFWTGIA (not fully specified (C-terminus); printed as RRAK(PEG2-Biotin)GKLTCLASYCWLFWTGIA; cysteine pairing not given here) [RRAK(PEG2-Biotin)GKLTCLASYCWLFWTGIA] | > 1 µM | 
13 | CRRAPGKLQCLASYCWLFWTGIAC | > 1 µM | 
14 | RRAPGKLTCLASYCWLFWTGIA (not fully specified; C-terminal PEG4) [RRAPGKLTCLASYCWLFWTGIA-PEG4] | < 0.5 µM | 
15 | HLFGADWLGARTAPGKLTCLASYCWLFWTGIA [HLFGADWLGA RTAPG KLTCLASYCWLFWTGIA] | > 1 µM | 
16 | TLWPWGGQGGRNAPGKLTCLASYCWLFWTGIA [TLWPWGGQGG RNAPG KLTCLASYCWLFWTGIA] | > 1 µM | 
17 | RRAPGKLTCLASYCWLFWTGK([PEG2(3)-Biotin])A (not fully specified (C-terminus); printed as RRAPGKLTCLASYCWLFWTGK(PEG2-Biotin)A; cysteine pairing not given here) [RRAPGKLTCLASYCWLFWTGK(PEG2-Biotin)A] | < 0.5 µM | 
18 | TGLLQGRRDERARPPKLTCLASYCWLFWTGIA [TGLLQGRRDE RARPP KLTCLASYCWLFWTGIA] | < 0.5 µM | 
19 | WSLCFKLTCAYL-NH2 (cysteine pairing not given here) [compound A] |  | > 100 µM
20 | RRAPGKLTCLASYCWLFWK([PEG2″-Biotin])GIA (not fully specified; printed as RRAPGKLTCLASYCWLFWK(PEG2-Biotin)GIA; cysteine pairing not given here) [RRAPGKLTCLASYCWLFWK(PEG2-Biotin)GIA] | < 0.5 µM | 

Row | Binder | EC50 [µM], FXa generation assay | EC50 [µM], FXa generation assay with hFIXa
21 | PLKWTASGCRWLGCIQLARFAY-NH2 (cysteine pairing not given here) [compound B] |  | > 1 µM
22 | E([PEG-Biotin])RAPGKLTCLASYCWLFWTGIA (not fully specified; printed as Glu(Biotinyl-PEG)-RAPGKLTCLASYCWLFWTGIA; cysteine pairing not given here; reading uncertain) [Glu(Biotinyl-PEG)-RAPGKLTCLASYCWLFWTGIA] | > 4 µM | 
23 | TQWAQVGPRGRRAQGKLTCLASYCWLFWTGIA [TQWAQVGPRG RRAQG KLTCLASYCWLFWTGIA] | < 0.5 µM | 
24 | AVDSLPLYGARSAPSKLTCLASYCWLFWTGIA (not fully specified; cysteine pairing not given here) [AVDSLPLYGA RSAPS KLTCLASYCWLFWTGIA] | < 0.5 µM | 
25 | WRAGLDESQRDRAPGKLTCLASYCWLFWTGIA [WRAGLDESQR DRAPG KLTCLASYCWLFWTGIA] | < 0.5 µM | 
26 | QRAGRVARLHRRAPNKLTCLASYCWLFWTGIA [QRAGRVARLH RRAPN KLTCLASYCWLFWTGIA] | > 1 µM | 
27 | CGGSGGRRAPGKLQCLASYCWLFWTGIAC | > 1 µM | 
28 | RK([PEG2(3)-Biotin])APGKLTCLASYCWLFWTGIA (not fully specified (C-terminus); printed as RK(PEG2-Biotin)APGKLTCLASYCWLFWTGIA; cysteine pairing not given here) [RK(PEG2-Biotin)APGKLTCLASYCWLFWTGIA] | < 0.5 µM | 
29 | RRAPGKLTCLK([PEG2(3)-Biotin])SYCWLFWTGIA (cysteine pairing not given here) [RRAPGKLTCLK(PEG2-Biotin)SYCWLFWTGIA] | < 0.5 µM | 
30 | GYRVPVGGLVRRAHGKLTCLASYCWLFWTGIA [GYRVPVGGLV RRAHG KLTCLASYCWLFWTGIA] | > 1 µM | 
31 | RRK([PEG2″-Biotin])PGKLTCLASYCWLFWTGIA (not fully specified; printed as RRK(PEG2-Biotin)PGKLTCLASYCWLFWTGIA; cysteine pairing not given here) [RRK(PEG2-Biotin)PGKLTCLASYCWLFWTGIA] | < 0.5 µM | 
32 | RRAPGKLTCLASYCK([PEG2(3)-Biotin])LFWTGIA (not fully specified (C-terminus); printed as RRAPGKLTCLASYCK(PEG2-Biotin)LFWTGIA; cysteine pairing not given here) [RRAPGKLTCLASYCK(PEG2-Biotin)LFWTGIA] | < 0.5 µM | 
33 | PSGWAGWAPGRREPGKLTCLASYCWLFWTGIA [PSGWAGWAPG RREPG KLTCLASYCWLFWTGIA] | > 1 µM | 
34 | TSGPFGFGGSSRAQGKLTCLASYCWLFWTGIA [TSGPFGFGGS SRAQG KLTCLASYCWLFWTGIA] | > 1 µM | 
35 | RRAPGKLTCLASYCWLK([PEG2″-Biotin])WTGIA (not fully specified; printed as RRAPGKLTCLASYCWLK(PEG2-Biotin)WTGIA; cysteine pairing not given here) [RRAPGKLTCLASYCWLK(PEG2-Biotin)WTGIA] | > 1 µM | 
36 | RRAPGKK([PEG2(3)-Biotin])TCLASYCWLFWTGIA (cysteine pairing not given here) [RRAPGKK(PEG2-Biotin)TCLASYCWLFWTGIA] | > 5 µM | 
37 | RRAPGKLTCLASYCWLFWTGIK([PEG2(3)-Biotin]) (not fully specified (C-terminus); printed as RRAPGKLTCLASYCWLFWTGIK(PEG2-Biotin); cysteine pairing not given here) [RRAPGKLTCLASYCWLFWTGIK(PEG2-Biotin)] | < 0.5 µM | 
38 | VGSGDERALPSRASGKLTCLASYCWLFWTGIA [VGSGDERALP SRASG KLTCLASYCWLFWTGIA] | < 0.5 µM | 
39 | SKQGRPISPD[dR]RAAGKLTCLASYCWLFWTGIA-NH2 (cysteine pairing not given here) [compound 24] |  | < 0.5 µM
40 | RRAPGKLTCLASYCWLFSTGVATHANTTATAQ [RRAPGKLTCLASYCWLF STGVA THANTTATAQ] | > 1 µM | 
